Results reported in publication PMC3575545.
Several values for one entry are separate records, joined by “and”; a condition that tells them apart may be missing. Identical values can stand only once.

Columns and labels:
[1] = target: acrylodan-labeled FtsY Cys356 (UniProt P10121); experiment: other fluorescence titration
[2] = target: SRP (Ffh bound to 4.5 S RNA) with DACM-labeled Ffh Cys235 (UniProt P0AGD7); experiment: FRET or BRET

Row | Substance | fold stabilisation of the activated complex by SecYEG (against no SecYEG) [1] | Kd [2] | fold destabilisation of the early complex by SecYEG (against no SecYEG) [2]
1 | Signal recognition particle (SRP; Ffh bound to 4.5 S RNA) (from UniProt P0AGD7 1-453) (complex) | 2 fold and 4 fold |  | 
2 | BODIPY-FL-labeled FtsY Cys487 (full-length FtsY) (from UniProt P10121 1-497) (receptor) |  | 162 nM | > 15 fold
